Results as given in paper PMC9482650, “Quantitative fragmentomics allow affinity mapping of interactomes” (Nature Communications, 2022).

T1: HTRA3, P83110
T1 sequence (P83110 354-453, limits assumed, looked up): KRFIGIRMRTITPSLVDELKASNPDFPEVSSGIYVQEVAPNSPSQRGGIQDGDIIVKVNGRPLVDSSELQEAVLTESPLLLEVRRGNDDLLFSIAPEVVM

T2: LRRC7, Q96NW7
T2 sequence (Q96NW7 1440-1537, limits assumed, looked up): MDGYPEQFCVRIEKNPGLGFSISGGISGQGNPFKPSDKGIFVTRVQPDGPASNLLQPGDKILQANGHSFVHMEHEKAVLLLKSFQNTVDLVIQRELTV

T3: NHERF3_3, Q5T2W1
T3 sequence (Q5T2W1 238-333, limits assumed, looked up): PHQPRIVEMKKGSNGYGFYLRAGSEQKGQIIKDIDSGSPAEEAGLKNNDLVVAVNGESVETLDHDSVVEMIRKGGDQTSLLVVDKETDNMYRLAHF

T4: SNTA1, Q13424
T4 sequence (Q13424 82-180, limits assumed, looked up): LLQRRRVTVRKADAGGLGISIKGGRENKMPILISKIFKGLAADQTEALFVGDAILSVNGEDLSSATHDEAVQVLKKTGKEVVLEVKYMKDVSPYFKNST

T5: RHPN1, Q8TCX5
T5 sequence (Q8TCX5 508-602, limits assumed, looked up): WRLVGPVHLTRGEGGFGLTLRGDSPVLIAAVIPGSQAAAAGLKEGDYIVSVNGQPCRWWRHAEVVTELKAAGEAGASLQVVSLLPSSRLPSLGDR

T6: GRIP1_7, Q9Y3R0
T6 sequence (Q9Y3R0 999-1096, limits assumed, looked up): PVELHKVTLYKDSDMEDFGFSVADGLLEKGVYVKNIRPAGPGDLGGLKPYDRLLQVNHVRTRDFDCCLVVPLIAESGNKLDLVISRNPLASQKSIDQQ

T7: CARD11, Q9BXL7
T7 sequence (Q9BXL7 662-765, limits assumed, looked up): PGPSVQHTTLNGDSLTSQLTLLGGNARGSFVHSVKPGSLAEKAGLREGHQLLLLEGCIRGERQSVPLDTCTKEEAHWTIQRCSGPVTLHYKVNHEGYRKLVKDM

T8: SNTB1, Q13884
T8 sequence (Q13884 107-205, limits assumed, looked up): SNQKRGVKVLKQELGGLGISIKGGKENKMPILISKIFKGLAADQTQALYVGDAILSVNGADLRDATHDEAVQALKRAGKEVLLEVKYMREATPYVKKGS

T9: GRIP1_4, Q9Y3R0
T9 sequence (Q9Y3R0 467-571, limits assumed, looked up): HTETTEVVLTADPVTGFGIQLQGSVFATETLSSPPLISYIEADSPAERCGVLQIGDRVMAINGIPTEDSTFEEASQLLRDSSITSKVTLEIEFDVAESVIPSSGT

T10: TIAM2, Q8IVF5
T10 sequence (Q8IVF5 885-986, limits assumed, looked up): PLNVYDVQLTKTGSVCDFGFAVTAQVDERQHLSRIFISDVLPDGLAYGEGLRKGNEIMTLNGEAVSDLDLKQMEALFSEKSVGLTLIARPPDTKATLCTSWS

T11: DFNB31_3, Q9P202
T11 sequence (Q9P202 811-907, limits assumed, looked up): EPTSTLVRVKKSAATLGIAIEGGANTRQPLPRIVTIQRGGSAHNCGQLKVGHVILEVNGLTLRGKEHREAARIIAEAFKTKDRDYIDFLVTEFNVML


biological target: T1, HTRA3, P83110; assay: holdup assay; parameters: key: below the threshold = too weak to quantify, mostly under pKd 3.1 to 4; conditions: plain residues with an end cap or a label only (N-terminal biotin on a linker: ado-ado)

| Binder | pKd |
| --- | --- |
| ARSAAASNYV [CLDN4, O14493] | 4.15 |

biological target: GRIP2_6, Q9C0E4; assay: holdup assay; parameters: key: below the threshold = too weak to quantify, mostly under pKd 3.1 to 4; conditions: plain residues with an end cap or a label only (N-terminal biotin on a linker: ado-ado)
Sequence (Q9C0E4 648-740): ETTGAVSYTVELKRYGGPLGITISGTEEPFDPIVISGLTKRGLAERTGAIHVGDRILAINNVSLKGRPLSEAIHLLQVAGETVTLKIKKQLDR

| Binder | pKd |
| --- | --- |
| ARSAAASNYV [CLDN4, O14493] | below the threshold |

biological target: T2, LRRC7, Q96NW7; assay: holdup assay; parameters: key: below the threshold = too weak to quantify, mostly under pKd 3.1 to 4; conditions: plain residues with an end cap or a label only (N-terminal biotin on a linker: ado-ado)

| Binder | pKd |
| --- | --- |
| ARSAAASNYV [CLDN4, O14493] | below the threshold |

biological target: MAGI3_2, Q5TCQ9; assay: holdup assay; parameters: key: below the threshold = too weak to quantify, mostly under pKd 3.1 to 4; conditions: plain residues with an end cap or a label only (N-terminal biotin on a linker: ado-ado)
Sequence (Q5TCQ9 398-503): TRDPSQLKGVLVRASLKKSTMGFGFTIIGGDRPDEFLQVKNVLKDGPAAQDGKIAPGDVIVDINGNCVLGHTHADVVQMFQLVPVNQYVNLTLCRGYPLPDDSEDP

| Binder | pKd |
| --- | --- |
| ARSAAASNYV [CLDN4, O14493] | below the threshold |

biological target: Inadl_10, Q8NI35; assay: holdup assay; parameters: key: below the threshold = too weak to quantify, mostly under pKd 3.1 to 4; conditions: plain residues with an end cap or a label only (N-terminal biotin on a linker: ado-ado)
Sequence (Q8NI35 1673-1763): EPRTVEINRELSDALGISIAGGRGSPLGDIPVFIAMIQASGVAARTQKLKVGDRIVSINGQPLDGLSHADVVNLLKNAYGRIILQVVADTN

| Binder | pKd |
| --- | --- |
| ARSAAASNYV [CLDN4, O14493] | below the threshold |

biological target: T3, NHERF3_3, Q5T2W1; assay: holdup assay; parameters: key: below the threshold = too weak to quantify, mostly under pKd 3.1 to 4; conditions: plain residues with an end cap or a label only (N-terminal biotin on a linker: ado-ado)

| Binder | pKd |
| --- | --- |
| ARSAAASNYV [CLDN4, O14493] | below the threshold |

biological target: T4, SNTA1, Q13424; assay: holdup assay; parameters: key: below the threshold = too weak to quantify, mostly under pKd 3.1 to 4; conditions: plain residues with an end cap or a label only (N-terminal biotin on a linker: ado-ado)

| Binder | pKd |
| --- | --- |
| ARSAAASNYV [CLDN4, O14493] | 3.63 |

biological target: T5, RHPN1, Q8TCX5; assay: holdup assay; parameters: key: below the threshold = too weak to quantify, mostly under pKd 3.1 to 4; conditions: plain residues with an end cap or a label only (N-terminal biotin on a linker: ado-ado)

| Binder | pKd |
| --- | --- |
| ARSAAASNYV [CLDN4, O14493] | below the threshold |

biological target: T6, GRIP1_7, Q9Y3R0; assay: holdup assay; parameters: key: below the threshold = too weak to quantify, mostly under pKd 3.1 to 4; conditions: plain residues with an end cap or a label only (N-terminal biotin on a linker: ado-ado)

| Binder | pKd |
| --- | --- |
| ARSAAASNYV [CLDN4, O14493] | below the threshold |

biological target: T7, CARD11, Q9BXL7; assay: holdup assay; parameters: key: below the threshold = too weak to quantify, mostly under pKd 3.1 to 4; conditions: plain residues with an end cap or a label only (N-terminal biotin on a linker: ado-ado)

| Binder | pKd |
| --- | --- |
| ARSAAASNYV [CLDN4, O14493] | below the threshold |

biological target: DLG1_3, Q12959; assay: holdup assay; parameters: key: below the threshold = too weak to quantify, mostly under pKd 3.1 to 4; conditions: plain residues with an end cap or a label only (N-terminal biotin on a linker: ado-ado)
Sequence (Q12959 457-571): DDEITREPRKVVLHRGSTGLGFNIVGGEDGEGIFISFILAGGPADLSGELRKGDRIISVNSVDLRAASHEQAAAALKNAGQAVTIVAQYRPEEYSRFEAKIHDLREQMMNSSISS

| Binder | pKd |
| --- | --- |
| ARSAAASNYV [CLDN4, O14493] | below the threshold |

biological target: T8, SNTB1, Q13884; assay: holdup assay; parameters: key: below the threshold = too weak to quantify, mostly under pKd 3.1 to 4; conditions: plain residues with an end cap or a label only (N-terminal biotin on a linker: ado-ado)

| Binder | pKd |
| --- | --- |
| ARSAAASNYV [CLDN4, O14493] | below the threshold |

biological target: GRASP, Q7Z6J2; assay: holdup assay; parameters: key: below the threshold = too weak to quantify, mostly under pKd 3.1 to 4; conditions: plain residues with an end cap or a label only (N-terminal biotin on a linker: ado-ado)
Sequence (Q7Z6J2 96-193): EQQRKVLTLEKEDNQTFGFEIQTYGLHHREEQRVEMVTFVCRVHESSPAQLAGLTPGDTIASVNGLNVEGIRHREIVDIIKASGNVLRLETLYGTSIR

| Binder | pKd |
| --- | --- |
| ARSAAASNYV [CLDN4, O14493] | below the threshold |

biological target: Inadl_6, Q8NI35; assay: holdup assay; parameters: key: below the threshold = too weak to quantify, mostly under pKd 3.1 to 4; conditions: plain residues with an end cap or a label only (N-terminal biotin on a linker: ado-ado)
Sequence (Q8NI35 1058-1167): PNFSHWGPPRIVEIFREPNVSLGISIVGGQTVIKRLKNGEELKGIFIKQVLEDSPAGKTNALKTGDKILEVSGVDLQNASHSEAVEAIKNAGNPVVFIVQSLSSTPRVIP

| Binder | pKd |
| --- | --- |
| ARSAAASNYV [CLDN4, O14493] | below the threshold |

biological target: IL16_3, Q14005; assay: holdup assay; parameters: key: below the threshold = too weak to quantify, mostly under pKd 3.1 to 4; conditions: plain residues with an end cap or a label only (N-terminal biotin on a linker: ado-ado)
Sequence (Q14005 1107-1207): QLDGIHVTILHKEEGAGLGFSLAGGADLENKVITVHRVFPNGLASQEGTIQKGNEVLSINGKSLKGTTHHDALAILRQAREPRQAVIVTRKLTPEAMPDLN

| Binder | pKd |
| --- | --- |
| ARSAAASNYV [CLDN4, O14493] | below the threshold |

biological target: GOPC, Q9HD26; assay: holdup assay; parameters: key: below the threshold = too weak to quantify, mostly under pKd 3.1 to 4; conditions: plain residues with an end cap or a label only (N-terminal biotin on a linker: ado-ado)

| Binder | pKd |
| --- | --- |
| ARSAAASNYV [CLDN4, O14493] | below the threshold |

biological target: Inadl_2, Q8NI35; assay: holdup assay; parameters: key: below the threshold = too weak to quantify, mostly under pKd 3.1 to 4; conditions: plain residues with an end cap or a label only (N-terminal biotin on a linker: ado-ado)
Sequence (Q8NI35 238-335): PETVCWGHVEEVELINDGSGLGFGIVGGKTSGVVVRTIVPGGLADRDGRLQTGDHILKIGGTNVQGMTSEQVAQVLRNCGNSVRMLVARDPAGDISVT

| Binder | pKd |
| --- | --- |
| ARSAAASNYV [CLDN4, O14493] | below the threshold |

biological target: FRMPD2_3, Q68DX3; assay: holdup assay; parameters: key: below the threshold = too weak to quantify, mostly under pKd 3.1 to 4; conditions: plain residues with an end cap or a label only (N-terminal biotin on a linker: ado-ado)
Sequence (Q68DX3 1073-1166): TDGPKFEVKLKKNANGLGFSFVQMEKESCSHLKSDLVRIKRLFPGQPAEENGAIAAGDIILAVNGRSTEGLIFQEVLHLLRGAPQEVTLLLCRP

| Binder | pKd |
| --- | --- |
| ARSAAASNYV [CLDN4, O14493] | below the threshold |

biological target: GORASP1, Q9BQQ3; assay: holdup assay; parameters: key: below the threshold = too weak to quantify, mostly under pKd 3.1 to 4; conditions: plain residues with an end cap or a label only (N-terminal biotin on a linker: ado-ado)
Sequence (Q9BQQ3 1-208): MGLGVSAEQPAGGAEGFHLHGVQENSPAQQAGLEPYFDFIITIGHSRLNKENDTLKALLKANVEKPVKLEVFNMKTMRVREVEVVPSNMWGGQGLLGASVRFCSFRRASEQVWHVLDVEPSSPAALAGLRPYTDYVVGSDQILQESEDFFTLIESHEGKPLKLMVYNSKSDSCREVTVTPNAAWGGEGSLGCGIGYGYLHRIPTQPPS

| Binder | pKd |
| --- | --- |
| ARSAAASNYV [CLDN4, O14493] | 3.69 |

biological target: T9, GRIP1_4, Q9Y3R0; assay: holdup assay; parameters: key: below the threshold = too weak to quantify, mostly under pKd 3.1 to 4; conditions: plain residues with an end cap or a label only (N-terminal biotin on a linker: ado-ado)

| Binder | pKd |
| --- | --- |
| ARSAAASNYV [CLDN4, O14493] | below the threshold |

biological target: SNX27, Q96L92; assay: holdup assay; parameters: key: below the threshold = too weak to quantify, mostly under pKd 3.1 to 4; conditions: plain residues with an end cap or a label only (N-terminal biotin on a linker: ado-ado)

| Binder | pKd |
| --- | --- |
| ARSAAASNYV [CLDN4, O14493] | 3.53 |

biological target: GRIP2_4, Q9C0E4; assay: holdup assay; parameters: key: below the threshold = too weak to quantify, mostly under pKd 3.1 to 4; conditions: plain residues with an end cap or a label only (N-terminal biotin on a linker: ado-ado)
Sequence (Q9C0E4 446-548): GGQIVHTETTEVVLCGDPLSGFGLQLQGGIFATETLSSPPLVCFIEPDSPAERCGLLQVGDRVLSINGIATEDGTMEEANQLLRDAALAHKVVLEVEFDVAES

| Binder | pKd |
| --- | --- |
| ARSAAASNYV [CLDN4, O14493] | below the threshold |

biological target: SCRIB_1, Q14160; assay: holdup assay; parameters: key: below the threshold = too weak to quantify, mostly under pKd 3.1 to 4; conditions: plain residues with an end cap or a label only (N-terminal biotin on a linker: ado-ado)
Sequence (Q14160 718-814): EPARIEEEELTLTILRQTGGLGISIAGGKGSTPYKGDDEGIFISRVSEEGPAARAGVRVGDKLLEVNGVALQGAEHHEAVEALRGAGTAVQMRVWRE

| Binder | pKd |
| --- | --- |
| ARSAAASNYV [CLDN4, O14493] | below the threshold |

biological target: T10, TIAM2, Q8IVF5; assay: holdup assay; parameters: key: below the threshold = too weak to quantify, mostly under pKd 3.1 to 4; conditions: plain residues with an end cap or a label only (N-terminal biotin on a linker: ado-ado)

| Binder | pKd |
| --- | --- |
| ARSAAASNYV [CLDN4, O14493] | below the threshold |

biological target: T11, DFNB31_3, Q9P202; assay: holdup assay; parameters: key: below the threshold = too weak to quantify, mostly under pKd 3.1 to 4; conditions: plain residues with an end cap or a label only (N-terminal biotin on a linker: ado-ado)

| Binder | pKd |
| --- | --- |
| ARSAAASNYV [CLDN4, O14493] | below the threshold |

biological target: DLG2_3, Q15700; assay: holdup assay; parameters: key: below the threshold = too weak to quantify, mostly under pKd 3.1 to 4; conditions: plain residues with an end cap or a label only (N-terminal biotin on a linker: ado-ado)

| Binder | pKd |
| --- | --- |
| ARSAAASNYV [CLDN4, O14493] | below the threshold |
